Reference: patent US20230295297A1
Residue numbers refer to the chain shown, from its start. Each block holds one binder with its values, some of them ahead of it.

Columns and labels:
[1] = target: T1, mouse TREM2 on cells (mouse), Q99NH8; test: KD cell binding
T1 chain: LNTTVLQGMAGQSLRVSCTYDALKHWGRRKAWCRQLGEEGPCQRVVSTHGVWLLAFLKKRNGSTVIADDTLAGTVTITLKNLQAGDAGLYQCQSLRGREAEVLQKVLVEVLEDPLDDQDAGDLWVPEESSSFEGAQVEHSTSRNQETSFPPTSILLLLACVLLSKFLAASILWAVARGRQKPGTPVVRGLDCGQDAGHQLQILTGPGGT

[2] = target: T1, mouse TREM2 on cells (mouse), Q99NH8; test: FACS, BWZmT2 cells
[3] = target: T1, mouse TREM2 on cells (mouse), Q99NH8; test: cell-based or functional assay
[4] = target: T1, mouse TREM2 on cells (mouse), Q99NH8; test: FACS, WT mouse macrophages
[5] = target: TREM2 protein of the 'Percent APOE binding' column of Table 9B; test: TREM2 binding to APOE with antibody; assay not described for this table
[6] = target: recombinant human TREM2-DAP12 fusion protein expressed on cells (human); test: cell-based or functional assay
recombinant human TREM2-DAP12 fusion protein expressed on cells (human), sequence (chain, as listed by the source limits assumed, form in doubt): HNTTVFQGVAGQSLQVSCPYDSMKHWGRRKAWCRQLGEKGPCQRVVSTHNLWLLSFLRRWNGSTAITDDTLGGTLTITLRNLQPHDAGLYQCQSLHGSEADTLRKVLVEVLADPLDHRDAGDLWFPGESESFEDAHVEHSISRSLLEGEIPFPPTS

B3: 9F5 (antibody, IgG1, V domains shown)
VL: DVVMTQTPLSLPVSLGDQASISCRSSQSLVHSNGYTYLHWYLQKPGQSPKLLIYKVSNRFSGVPDRFSGSGSGTDFTLKISRVEADDLGVYFCSQSTRVPYTFGGGTKLEIK
VH: QVQLQQSGPELVKPGASLKISCKASGYAFSSSWMNWVKQRPGKGLEWIGRIYPGDGDTNYNGEFRVRATLTADTSSTTAYMQLSSLTSEDSAVYFCARLLRNQPGESYAMDYWGQGASVTVSS
- BWZhT2 LUC Plate-bound (FOB) [6]: 2.48 FOB
- BWZhT2 LUC Solution (FOB) [6]: 1.75 FOB
- BWZhT2 LUC Solution + PS (Δ Bmax) [6]: 2930

B4: 9G1 (antibody, IgG1, V domains shown)
VL: B3 VL with V3L, S25F, Y35N, K79R, R82G, D86E, Y101P
VH: QVQLQQSGAELVKPGASVKLSCKASGYIFTTYWIHWVKQRPGRGPEWIGRIDPNNGDTNYNEKFKTKATLTVDKPSSTADMQLSSLTSEDSAVYYCVMTGTDFDYWGQGTTLTVSS
- BWZhT2 LUC Plate-bound (FOB) [6]: 1.59 FOB
- BWZhT2 LUC Solution (FOB) [6]: 1.07 FOB
- BWZhT2 LUC Solution + PS (Δ Bmax) [6]: 2660

B6: 10A9 (antibody, IgG1, V domains shown)
VL: DVVMTQTPLSLPVSLGDQASISCRSSQTIIHSNGNTYLEWYLRKPGQSPKLLIYKVSNRFCGVPDRFSGSGSGTDFTLKISRVEAEDLGVYYCFQGSHVPYTFGGGTELEIK
VH: QVQLQQSGAEVVKPGASVKMSCKTSGYPFSNFWITWVKQRPGQGLVWIGDIYPGSDNRNFNERFKTKATLTVDTSSSTAYMHLSSLTSEDSAVYFCAREAYYTNPGFAYWGQGTLVTVSA
- BWZhT2 LUC Plate-bound (FOB) [6]: 2.18 FOB
- BWZhT2 LUC Solution (FOB) [6]: 0.31 FOB

B7: 3A2 (antibody, IgG1, V domains shown)
VL: B6 VL with C61S
VH: B6 VH with V11L, R58S, F60Y, R63K, A120T
- BWZhT2 LUC Plate-bound (FOB) [6]: 1.07 FOB
- BWZhT2 LUC Solution (FOB) [6]: 0.32 FOB

Second part, the binder after the results:

- Kd [1]: 5.86 nM
- MFI BWZmT2 [2]: 2870 MFI
- BWZmT2 LUC Plate-bound (FOB) [3]: 7.8 FOB
- BWZmT2 LUC Solution (FOB) [3]: 7.18 FOB
- decrease in cell surface level of TREM2 on BMDM (FACS) [3]: 58%
- % Positive WT BMMACS [4]: 26.3%
- Percent APOE binding [5]: 92.3%
B1: 3A7 (antibody, IgG1, V domains shown)
VL: not shown
VH: EVKLEESGGGLVQPGGSMKLSCAASGFTFSDAWMGWVRQSPEKGLEWVAEIRDKVKNHATYYAESVKGRFTISRDDSKSTVYLQMNTLRADDTGIYYCRLGVFDYWGQGTTLTVSS
modifications: not checked

- BWZhT2 LUC Plate-bound (FOB) [6]: 5.46 FOB
- BWZhT2 LUC Solution (FOB) [6]: 0.35 FOB
B2: 8A1 (antibody, IgG2a, V domains shown)
VL: DIQMTQSPASLSVSVGETVTITCRTSENVYSNLAWYQQKQGKSPQLLVYAATNLADGVPSRFSASGSATQFSLKINSLQSADFGSYYCHHFWGTPYTFGGGTKLEMN
VH: EVQLQQSGAELVKPGASVKISCKASGYAFSNYWMSWVKQRPGKGLEWIGQIYPGDGDTKYNGKFEGKATLTADKSSSTAYMQLSSLTSEDSAVYFCSREKGADYYGSTYSAWFSYWGQGTLVTVSA

- BWZhT2 LUC Plate-bound (FOB) [6]: 1.1 FOB
- BWZhT2 LUC Solution (FOB) [6]: 3.6 FOB
- BWZhT2 LUC Solution + PS (Δ Bmax) [6]: -40200
B5: 6H2 (antibody, IgG2a, V domains shown)
VL: B6 VL with V3L, T28S, I30V, R43Q, C61S, Y101F, G105S, E108K
VH: QVQLQESGPGLVQPSQSLSIICTVSAFSLTNYAVHWIRQSPGKGLEWLGVIWSGGSTAFNAAFISRLNISKDNSKSQVFFKMNSLQSDDTAIYYCATHYYRSTYAFSYWGQGTLVTVSA
